This assay concerns the target Borna disease virus 1 (BoDV-1) phosphoprotein (Borna disease virus 1). The assay can be described thus: SEC-MALS; SEC-MALLS, Superdex 200 10/300, 20°C, 20 mM HEPES pH 7.5, 150 mM NaCl, 5%(v/v) glycerol; protein applied at 1-4 mg/ml; no concentration dependence of the oligomerization. On the technique in general: In gel filtration, larger molecules generally elute earlier.

With “Borna disease virus 1 (BoDV-1) phosphoprotein (natural protein)”, the stoichiometry N is 4.

By stoichiometry N is commonly meant a count of units in the complex or per binding partner.

Source of the values: publication PMC9979977.
